From PMC5036048 (Scientific Reports, 2016)

Experiments:
[1] = biological target: T1, N43 (gp41 NHR peptide, Val539~Leu581) (HIV-1 (numbering of HIV-1 HXB2 gp160), UniProt P04578 539-581); experiment: cell-based or functional assay
[2] = biological target: T1, N43 (gp41 NHR peptide, Val539~Leu581); experiment: cell-based or functional assay; remark: listed apart in the source

T1 sequence (P04578 539-581): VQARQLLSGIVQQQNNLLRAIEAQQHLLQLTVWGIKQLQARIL

Binder: WMEWDREINNYTSLIHSLIEESQNQQIDL [CP-IDL]
- IC50 of inhibition of HIV-1 pseudovirus B1206.W6P.ENV.A1 (subtype A) [1]: 74.5 nM
- IC50 of inhibition of HIV-1 pseudovirus BG505.W6M.ENV.C2 (subtype A) [1]: 8.61 nM
- IC50 of inhibition of HIV-1 pseudovirus BJ412.W6M.ENV.S3 (subtype C) [1]: 1.21 nM
- IC50 of inhibition of HIV-1 pseudovirus MJ412.W0M.ENV.B1 (subtype C) [1]: 2.24 nM
- IC50 of inhibition of HIV-1 pseudovirus SF162.LS (subtype B, R5, Tier 1) [1]: 1.51 nM
- IC50 of inhibition of HIV-1 pseudovirus ZM109F.PB4 (subtype C, R5) [1]: 2.93 nM
- IC50 of inhibition of HIV-1 pseudovirus pCH119 env (subtype BC, R5, Tier 2) [1]: 5.79 nM
- IC50 of inhibition of infection, T20-resistant strain N42T, N43K [2]: 382 nM
- IC50 of inhibition of infection, T2635-resistant strain K154Q [2]: 9.79 nM
- IC50 of inhibition of infection, T2635-resistant strain N113E [2]: 7.99 nM
- IC50 of inhibition of infection, T2635-resistant strain N126K [2]: 46.4 nM
- IC50 of inhibition of infection, T2635-resistant strain Q66R, N126K [2]: 302 nM
- IC50 of inhibition of infection, panel of T20-resistant strains: WT [2]: 8.67 nM
- IC50 of inhibition of infection, panel of T2635-resistant strains: WT [2]: 10.8 nM
